These results are taken from patent US20190040138A1 (AKESO BIOPHARMA, published 2019).

Assay [1] addresses T1, PD-1-mIgGFc fusion protein.
T1 construct: also called PD-1-mFc; PD-1-mIgGFc antigen
The assay is described as follows: competitive ELISA on coated PD-1-mIgGFc; competitor PDL1-mIgG2aFc 0.3 µg/ml; antibody 1.5 µg/ml diluted 1:3; replicate 2. How it is done:
(§1) A 96-well ELISA plate was coated with PD-1-mIgGFc antigen in a concentration of 0.5 μg/ml (50 μl per well) by incubation at 4° C. overnight.
(§2) The 18A10 H1L1, 18A10 H2L2 and 18A10 H3L3 antibodies each were diluted from 3 μg/ml in series by 1:3, with 7 gradient antibody solutions obtained for each antibody. The 7 gradient antibody solutions for each antibody and the blank PBS control (50 μl per well) were respectively added into the blocked 96-well ELISA plate for incubation at room temperature for 10 minutes.
(§3) After the 96-well ELISA plate was washed with the PBST buffer for three times and gently patted to dryness, goat anti-mouse IgG-HRP (H+L) as a secondary antibody in 1:5000 dilution (50 μl per well) was added for incubation at 37° C. for 1 hour.
On the technique in general: An ELISA detects its analyte on a solid surface through an enzyme-linked reagent.

In assay [2] the target is T2, PD-1 antigen stably expressed on the surface of BB007 cells (UniProt Q15116 25-288, limits assumed).
T2 construct: whole, on cells; also called target protein PD-1 on the surface of the BB007 cell
The assay is described as follows: flow cytometry on BB007 cells; antibody 10 nM. As for the experimental part: (§4) The binding efficiencies of H1L1, H2L2 and H3L3 antibodies to PD-1 antigen stably expressed on the surface of cells (named as BB007 cells) were determined by flow cytometry. The BB007 cells were obtained by routine trypsin digestion, and then washed with PBS buffer once, followed by dividing into several tubes, with 2×10⁵ cells per tube. After dilution into concentrations of 20 nM, 10 nM, 5 nM, 1 nM, 0.1 nM and 0 nM with the PBS buffer containing 1% BSA for each of the H1L1, H2L2 and H3L3 antibodies, individual antibodies in a volume of 100 μl were added into individual tubes and incubated on ice for 1 hour. After the mixture was washed with the PBS buffer once, 100 μl FITC-Goat-Anti-Human IgG (in 1:500 dilution) was added for each tube and incubated on ice for 1 hour, followed by addition of 300 μl the PBS buffer for detecting fluorescence signal with a FITC channel on the flow cytometer.
On the technique in general: Flow cytometry measures light scatter and fluorescence of single cells or particles in a stream.

The target in assay [3] is T1, PD-1-mIgGFc fusion protein. In words: ELISA on coated PD-1-mFc; antibody 1 µg/ml; replicate 2. As for the experimental part: (§5) An ELISA plate was coated with PD-1-mFc antigen in a concentration of 0.5 μg/ml (50 μl per well) by incubation at 4° C. overnight.
(§6) After the ELISA plate was washed with the PBST buffer for three times and gently patted to dryness again, TMB as a developer in 50 μl per well was added for incubation at room temperature for 5 to 10 minutes.
(§7) The absorbance of solution in each well was measured with the microplate reader under a wavelength of 450 nm.

The target of assay [4] is T2, PD-1 antigen stably expressed on the …. In words: flow cytometry on BB007 cells; antibody 0.1 nM. How it is done: as §4
Assay [5] has as its target biotin-labeled PD-1 antigen (UniProt Q15116 25-167, limits assumed, biotin-labeled (site not stated)). The assay is described as follows: BLI (Fortebio), biotin-labeled PD-1 on SA sensor. How it is done:
Kinetic characteristic parameters of 18A10 H1L1, H2L2 and H3L3 antibodies were determined using the Fortebio molecule interaction instrument.
The biotin-labeled PD-1 antigen was immobilized on the surface of the SA sensor. […] Assays for H2L2 and H3L3 are the same as H1L1. Results of kinetic characteristic parameters of the H1L1, H2L2 and H3L3 antibodies are shown in Table 4, FIG. 4, FIG. 5 and FIG. 6.

For assay [6], the target named is T1, PD-1-mIgGFc fusion protein. The assay is described as follows: ELISA on coated PD-1-mFc; antibody 1 µg/ml diluted 1:27; replicate 2. As for the experimental part:
as §5, §6, §7

For assay [7], the target named is T1, PD-1-mIgGFc fusion protein. The assay is described as follows: ELISA on coated PD-1-mFc; antibody 1 µg/ml diluted 1:9; replicate 2. As for the experimental part:
as §5
(§8) The ELISA plate coated with the PD-1-mFc antigen was blocked with 1% BSA in the PBS buffer at 37° C. for 2 hours, and washed with 1×PBST buffer containing 1% Tween-20 for three times, with gently patting to dryness.
as §7

The target in assay [8] is T1, PD-1-mIgGFc fusion protein. In words: ELISA on coated PD-1-mFc; antibody 1 µg/ml diluted 1:81; replicate 1. How it is done: as §5, §8, §7
In assay [9] the target is T1, PD-1-mIgGFc fusion protein. In words: competitive ELISA on coated PD-1-mIgGFc; competitor PDL1-mIgG2aFc 0.3 µg/ml; antibody 1.5 µg/ml diluted 1:81; replicate 2. As for the experimental part:
as §1, §2, §7

The target of assay [10] is T1, PD-1-mIgGFc fusion protein. In words: competitive ELISA on coated PD-1-mIgGFc; competitor PDL1-mIgG2aFc 0.3 µg/ml; antibody 1.5 µg/ml diluted 1:9; replicate 1. How it is done: as §1, §2, §3
For assay [11], the target named is T1, PD-1-mIgGFc fusion protein. In words: competitive ELISA on coated PD-1-mIgGFc; competitor PDL1-mIgG2aFc 0.3 µg/ml; antibody 1.5 µg/ml diluted 1:27; replicate 1. As for the experimental part: as §1, §2, §3
Assay [12] has as its target T1, PD-1-mIgGFc fusion protein. In words: ELISA on coated PD-1-mFc; antibody 1 µg/ml diluted 1:729; replicate 1. How it is done:
as §5, §6, §7

The target of assay [13] is T1, PD-1-mIgGFc fusion protein. In words: ELISA on coated PD-1-mFc; antibody 1 µg/ml diluted 1:9; replicate 1. As for the experimental part: as §5, §6, §7
For assay [14], the target named is T1, PD-1-mIgGFc fusion protein. The assay is described as follows: competitive ELISA on coated PD-1-mIgGFc; competitor PDL1-mIgG2aFc 0.3 µg/ml; antibody 1.5 µg/ml; replicate 1. How it is done:
as §1, §2, §7

Assay [15] addresses T2, PD-1 antigen stably expressed on the …. In words: flow cytometry on BB007 cells. How it is done: as §4
Assay [16] concerns the target T1, PD-1-mIgGFc fusion protein. In words: ELISA on coated PD-1-mFc; antibody 1 µg/ml diluted 1:27; replicate 1. How it is done: as §5, §6, §7
In assay [17] the target is T1, PD-1-mIgGFc fusion protein. In words: competitive ELISA on coated PD-1-mIgGFc; competitor PDL1-mIgG2aFc 0.3 µg/ml; antibody 1.5 µg/ml diluted 1:729; replicate 2. As for the experimental part:
as §1, §2, §7

Assay [18] addresses T1, PD-1-mIgGFc fusion protein. The assay is described as follows: ELISA on coated PD-1-mFc; antibody 1 µg/ml diluted 1:729; replicate 2. How it is done: as §5, §6, §7

T2 sequence (Q15116 25-288 limits assumed): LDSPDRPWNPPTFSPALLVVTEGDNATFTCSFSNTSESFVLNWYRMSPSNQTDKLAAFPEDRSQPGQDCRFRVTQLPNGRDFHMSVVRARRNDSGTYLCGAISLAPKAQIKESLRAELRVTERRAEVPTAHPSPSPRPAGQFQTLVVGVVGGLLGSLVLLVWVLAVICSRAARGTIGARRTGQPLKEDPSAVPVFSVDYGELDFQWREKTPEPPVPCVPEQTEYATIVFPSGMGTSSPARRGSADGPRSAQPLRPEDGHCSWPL
Chain of biotin-labeled PD-1 antigen (Q15116 25-167 limits assumed): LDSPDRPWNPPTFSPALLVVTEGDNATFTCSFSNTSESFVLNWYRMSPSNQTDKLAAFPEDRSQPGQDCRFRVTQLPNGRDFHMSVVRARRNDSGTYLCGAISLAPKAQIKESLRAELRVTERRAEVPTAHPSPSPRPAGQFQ
T1 sequence (chain, as listed by the source limits assumed): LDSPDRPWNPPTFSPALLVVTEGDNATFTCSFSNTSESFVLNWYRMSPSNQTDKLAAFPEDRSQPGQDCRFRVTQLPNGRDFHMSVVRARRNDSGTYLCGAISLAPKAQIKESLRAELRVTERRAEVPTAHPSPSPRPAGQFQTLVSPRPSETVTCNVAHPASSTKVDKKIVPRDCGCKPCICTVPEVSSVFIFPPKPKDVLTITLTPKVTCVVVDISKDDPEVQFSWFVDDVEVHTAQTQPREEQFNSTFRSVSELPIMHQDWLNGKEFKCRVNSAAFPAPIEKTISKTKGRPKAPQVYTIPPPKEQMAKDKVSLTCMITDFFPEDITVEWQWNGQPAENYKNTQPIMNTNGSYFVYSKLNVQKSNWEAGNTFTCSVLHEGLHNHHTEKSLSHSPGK

B1: humanized antibody 18A10 H2L2 (antibody, V domains shown)
VH: EVQLVQSGGGLVQPGGSLKLSCAASGFTFSSYGMSWVRQAPGKGLDWVATISGGGRDTYYPDSVKGRFTISRDNSKNNLYLQMNSLRAEDTALYYCARQKGEAWFAYWGQGTLVTVSS
VL: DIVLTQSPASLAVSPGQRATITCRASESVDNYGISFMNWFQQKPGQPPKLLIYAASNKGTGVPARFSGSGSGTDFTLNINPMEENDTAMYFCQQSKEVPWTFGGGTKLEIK
notes: also called H2L2 antibody
As to B1, the “absorbance at 450 nm (competition)” value in [1] was 0.097; in [9], 1.1; in [10] it was 0.474; in assay [11], 0.951; in assay [14], 0.11; in assay [17], 1.19. The values for the fluorescence intensity in assay [2] and in assay [4] were 349 and 19.1, respectively. For the same molecule, the “absorbance at 450 nm” value in [3] is 2.43; in assay [6], 1.63; in assay [7] it was 1.98; in assay [8] it was 1.04; in [12], 0.226; in assay [13] it was 2.18. In addition, the “absorbance at 450 nm” value worked out at 1.78 in assay [16] and 0.224 in assay [18]. This molecule displayed a Kd in assay [5] of 0.0428 nM. For the same molecule, in [5], the koff worked out at 9.86e-06 s⁻¹. This molecule returned a kon in assay [5] of 231000 M⁻¹ s⁻¹. Moreover, the 50% effective concentration (EC50) in [15] was 1.59 nM.

B2: humanized antibody 18A10 H1L1 (antibody, V domains shown)
VH: EVQLVQSGGGLVQPGGSLKLSCAASGFTFSSYGMSWVRQTPEKGLDWVATISGGGRDTYYPDSVKGRFTISRDNSKNNLYLQMNSLRAEDTALYYCARQKGEAWFAYWGQGTLVTVSS
VL: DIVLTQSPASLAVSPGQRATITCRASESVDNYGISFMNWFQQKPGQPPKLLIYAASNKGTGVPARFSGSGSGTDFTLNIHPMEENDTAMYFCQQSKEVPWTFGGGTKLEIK
notes: also called H1L1 antibody
In the case of B2, the “absorbance at 450 nm (competition)” value in assay [1] came to 0.109; in assay [9] it was 1.14; in [10] it was 0.625; in assay [11], 1.06; in assay [14], 0.11; in assay [17] it was 1.3. In addition, the fluorescence intensity in [2] was found to be 316; in assay [4], 19. The “absorbance at 450 nm” value amounted to 2.32 in assay [3]; 1.65 in assay [6]; 1.98 in assay [7]; 0.883 in [8]; 0.186 in [12]; 1.96 in assay [13]. Moreover, the “absorbance at 450 nm” value in assay [16] turned out to be 1.62; in assay [18] it was 0.163. The molecule also came in with a Kd in assay [5] of 0.036 nM. Also, the koff in [5] turned out to be 1.32e-05 s⁻¹. This molecule yielded a kon in assay [5] of 367000 M⁻¹ s⁻¹. For the same molecule, a half-maximal response in [15] (EC50) required 3.38 nM.

B3: humanized antibody 18A10 H3L3 (antibody, V domains shown)
VH: EVQLVQSGGGLVQPGGSLKLSCAASGFTFSSYGMSWVRQAPGKGLDWVATISGGGRDTYYPDSVKGRFTISRDNSKNTLYLQMNSLRAEDTAVYYCARQKGEAWFAYWGQGTLVTVSS
VL: DIVLTQSPASLAVSPGQRATITCRASESVDNYGISFMNWYQQKPGQPPKLLIYAASNKATGVPARFSGSGSGTDFTLNINPMEANDTAVYFCQQSKEVPWTFGGGTKLEIK
notes: also called H3L3 antibody
For B3, the “absorbance at 450 nm (competition)” value in assay [1] worked out at 0.108; in assay [9], 1.19; in assay [10] it was 0.7; in assay [11] it was 1; in [14] it was 0.101; in [17], 1.24. Further, the fluorescence intensity came to 386 in assay [2] and 21.2 in assay [4]. The “absorbance at 450 nm” value stood at 2.44 in assay [3]; 1.5 in assay [6]; 2.06 in assay [7]; 0.928 in assay [8]; 0.2 in [12]; 1.95 in [13]. Moreover, the “absorbance at 450 nm” value in assay [16] worked out at 1.58; in [18], 0.185. Besides, the dissociation constant Kd in [5] is 0.114 nM. The off-rate constant (koff) in assay [5] was found to be 1.56e-05 s⁻¹. In assay [5], this molecule yielded an on-rate (kon) of 137000 M⁻¹ s⁻¹. The same molecule registered a concentration giving a half-maximal response (EC50) in assay [15] of 1.68 nM.

What is called Kd is the constant that tells how readily two partners part at equilibrium. Higher therefore signals weaker binding. As a reminder, the koff is the first-order rate constant of dissociation. Lower therefore signals slow dissociation. One may read the kon as a measure of how fast the partners come together. Higher therefore signals fast association. Broadly, the EC50 is the concentration that produces a half-maximal response.
